Reference: patent US20170233470A1

Biological target: NTSR1
Assay: cell-based or functional assay

## Neurotensin (NTS) (from UniProt P30990 151-163) (peptide)
  decrease in cell growth (proliferation) of CHO cells overexpressing NTSR1: 60%
